± gives the uncertainty stated by the source.
Assay: amyloid nucleation score (Sup35N fusion, yeast selection) (log enrichment); library NNK2; higher = more nucleation; inactive = no reads after selection
Outline: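 On medium lacking adenine and uracil, psi-negative yeast expressing peptides of 20 random codons fused to Sup35N were grown 7 days at 30°C after a 24-hour induction with 100 μM copper sulfate. Illumina sequencing of input and output plasmid inserts gave the reads, and sequences under 100 input reads were excluded. The nucleation score is the DiMSum log enrichment of output over input reads, centred on the mode score of non-aggregating sequences.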

Point of comparison: QSGLIHY, amyloid nucleation score -0.894 ± 0.78. Against it:
- PQINMGVLAGGVYHYSTCGK — within error, 0.196 ± 0.74
- PQSWIVHRTIVHGSLGSCFP — within error, -0.4 ± 0.3
- PRDRLSSGPLQWHGFIIGYV — higher, 0.676 ± 0.23
- PRIFFYVNLFLRHWPEIKML — within error, -2.08 ± 1.1
- PRLRAAG — higher, 0.758 ± 0.26
- PRNRQRSNSTDCGHLITYWD — within error, 0.205 ± 0.62
- PRRCSISIEFRDE — within error, -0.718 ± 0.76
- PRSNCLHCFLLPLSNIVLCA — higher, 4.66 ± 0.049
- PRSQYRITYDYVCCRVMYKY — higher, 0.392 ± 0.46
- PRSYWRSYWAKVLDYQLIPR — higher, 3.55 ± 0.07
- PSDFYWSMFEQYCHGV — higher, 4.51 ± 0.05
- PSGGFTTSMVTDDIDVSARH — higher, 0.708 ± 0.53
- PSIKCTLFYSVTYLFMWGRK — within error, -0.406 ± 0.63
- PSLRSSCCWNFRPP — within error, 0.175 ± 0.42
- PSNKYSDVPSNAQSGFAWYG — higher, 0.56 ± 0.57
- PSNTIYHFIAELNEYETPRF — higher, 0.426 ± 0.15
- PSPVIWPISSPGFQSLCICS — within error, -0.38 ± 0.63
- PSQHSWGWARCLQDCDSMPG — higher, 0.591 ± 0.34
- PSQVL — higher, 0.992 ± 0.52
- PSRMCSCCPLRGSCKDMACR — higher, 0.256 ± 0.18
- PSSDGIRITSDGILMSVDNG — higher, 0.918 ± 0.58
- PSSKVL — within error, 0.024 ± 0.55
- PSWGSLCMSQNHMHLEV — within error, -0.087 ± 0.42
- PTMHVRVSG — higher, 0.495 ± 0.28
- PTSFLKSIVGVIWISANLSR — higher, 0.696 ± 0.43
- PVALLAIRMNIDVVN — within error, -0.353 ± 0.49
- PVCGVIALDSVTLCSSGMLL — higher, 0.334 ± 0.39
- PVIYSF — higher, 7.115 ± 0.031
- PVNCGWQGEDRTVEILHAHG — higher, 1.13 ± 0.28
- PWFMFPCRHRYRQYLWCFCA — higher, 2.52 ± 0.068
- PWNLLGWLRRS — within error, 0.108 ± 0.23
- PWTRWGVSFAFKAVNKCVHV — within error, -1 ± 0.76
- PWYGSQGNTKSCYSFVMSLP — within error, 0.06 ± 0.34
- PYIEVY — higher, 0.926 ± 0.52
- PYQAIHYVNRCGFWLTASCA — within error, 0.36 ± 0.62
- PYQSTCSDRSFYVCVCELHW — within error, 0.241 ± 0.8
- QCGWDFLFIVMCKFVQRRCS — within error, 0.35 ± 0.8
- QCMVVQYD — within error, -0.394 ± 0.65
- QCWGMERSERSIRFVTRFFR — higher, 3.5 ± 0.1
- QDFCSEGCLEDVSSLY — within error, -1.37 ± 0.49
- QEALLWTLNTLKKLSGRGST — within error, -1.44 ± 0.55
- QEFLWWGREQLGVCCLGVGR — higher, 2.88 ± 0.14
- QERSILGLHWYICRVAKLSF — within error, 0.196 ± 0.64
- QFGYRCTTPC — higher, 0.522 ± 0.3
- QFLEFHIP — within error, -0.223 ± 0.49
- QFLSYCFWIGNPLVNFINAN — higher, 5.874 ± 0.039
- QFRLQWGLLVQCAGDSVLVM — within error, -0.085 ± 0.61
- QFSYLYLVMASRSLTAVIIV — within error, -0.887 ± 0.3
- QFVHRYGDHNAGVLPSYRKS — higher, 5.22 ± 0.066
- QFWHKSVSTCLWCCSVAGSW — higher, 8.73 ± 0.071
- QGCLRQVQMRDRATRIGEVI — higher, 0.47 ± 0.25
- QGRGLRYQH — within error, 0.166 ± 0.76
- QHLLLCAAM — within error, 0.399 ± 0.74
- QIYGCNWLCLQVRHPV — higher, 8.061 ± 0.079
- QKFVLSRPDLDRFYCSMDCM — within error, -0.185 ± 0.63
- QLMDGSRSLFMALRRRFLLV — higher, 0.691 ± 0.74
- QLPNPKNMISIGNYWKQRSF — within error, -1.47 ± 1.1
- QLVLT — higher, 1.14 ± 0.21
- QMIWKIVCING — higher, 4.55 ± 0.097
- QNAMGTSVDYNVNFVYVGNL — higher, 3.38 ± 0.089
- QNDLIWSSW — within error, -1.32 ± 0.49
- QNGAALRLIGIWGNGGCK — within error, -0.003 ± 1.1
- QNGTERGFFCSKLNRSVTLL — within error, 0.358 ± 0.65
- QNHVRYQGRLPGSCLGCKYR — within error, -0.488 ± 1
- QNWVCMNRVYDLKDTYEIDL — within error, -0.526 ± 0.35
- QNYRNSGVKLHTRRIISCNV — within error, -0.526 ± 0.36
- QPCQSNSINDIHRRAGFGPL — within error, -0.437 ± 0.64
- QPGSLMGNRPKESVRASRAR — within error, -0.104 ± 0.45
- QRYCRA — higher, 0.94 ± 0.23
- QSESVVRHWGMRWR — higher, 0.729 ± 0.29
- QSETN — within error, -0.264 ± 0.29
- QSLVIN — higher, 4.58 ± 0.05
- QTCCTSNEQEFVALA — higher, 0.414 ± 0.32
- QTMMTTRKCSPLRLVLSQRL — within error, -0.161 ± 1.1
- QVCFHDQ — within error, -0.589 ± 0.48
- QVLISFG — within error, -2.41 ± 1.1
- QVVDGWWGNYFIV — within error, -1.92 ± 0.78
- QWSAILFSMRWFVKKSEFSC — higher, 3.48 ± 0.052

For PYSFSV, the amyloid nucleation score was “inactive”.
For QELIDIGTNSFVDCCS, the amyloid nucleation score was “inactive”.
In the case of QHKDLYLW, the amyloid nucleation score is reported as “inactive”.
With QIVAFY the amyloid nucleation score was “inactive”.
In the case of QIYSMDMQRMNKCCCEDGEV, the amyloid nucleation score is reported as “inactive”.
For QQKPVLGLCFWERAGHLSNR, the amyloid nucleation score was “inactive”.
For QSVYLPLRNVIFPVVVSKCE, the amyloid nucleation score was “inactive”.
With QVKLFYRLRPSFLCVFPFNL the amyloid nucleation score was “inactive”.
